For this experiment, the target named is human IL-15 complexed with the IL-15 Receptor-alpha (human, UniProt P40933 49-162). Nature of the experiment: cell-based or functional assay.

Data on 14 molecules can be found in US20200270339A1 (CEPHALON, published 2020).

Changes are numbered by the printed parent chain.

Sequence of human IL-15 complexed with the IL-15 Receptor-alpha (P40933 49-162 limits assumed, chain 1 of 2): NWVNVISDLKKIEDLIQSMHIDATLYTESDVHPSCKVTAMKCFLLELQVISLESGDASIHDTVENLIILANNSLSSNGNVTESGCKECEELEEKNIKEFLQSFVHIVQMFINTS
Sequence of human IL-15 complexed with the IL-15 Receptor-alpha (chain, as listed by the source limits assumed, chain 2 of 2): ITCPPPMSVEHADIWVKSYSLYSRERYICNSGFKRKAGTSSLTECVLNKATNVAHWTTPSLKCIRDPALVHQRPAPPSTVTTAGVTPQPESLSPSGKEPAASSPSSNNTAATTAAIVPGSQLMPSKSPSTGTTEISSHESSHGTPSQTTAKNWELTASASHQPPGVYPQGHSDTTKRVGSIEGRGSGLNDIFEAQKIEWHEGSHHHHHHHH

B1: Antibody 63 (antibody, V domains shown)
VH: QVQLQESGPGLVKPSGTLSLTCAVSGGSISSSNWWSWVRQPPGKGLEWIGEIYHYGYTNYNPSLKSRVTISVDKSKNQFSLKLSSVTAADTAVYYCAREGIGWPSFDYWGQGTLVTVSS
VL: SSELTQDPAASVALGQTVRITCQGDTLRNYYASWYQQKPGQAPILVIYGKNNRPSGIPDRFSGSSSGNTASLTITGAQAEDEADYYCNSRDSSGKNLVFGGGTKLTVL
Consider B1, for which the “IC 50 (NK-92) in pM” value was found to be 4.21 pM.

B2: Antibody 72 (antibody, V domains shown)
VH: B1 VH
VL: B1 VL with N29S, S92F
For B2, the “IC 50 (NK-92) in pM” value amounted to 20.9 pM.

B3: Antibody 75 (antibody, V domains shown)
VH: B1 VH with S84I
VL: B1 VL with S92L
Turning to B3, the “IC 50 (NK-92) in pM” value amounted to 3.14 pM.

B4: Antibody 64 (antibody, V domains shown)
VH: B1 VH
VL: SSELTQDPAASVALGQTVRITCQGDTLRSYYASWYQQKPGQAPILVIYGKNNRPSGIPDRFSGSSSGNTASLTITGAQAEDEADYYCNSRDSSGKNLVFGGGTKLTVLG
In the case of B4, the “IC 50 (NK-92) in pM” value worked out at 13.6 pM.

B5: Antibody 67 (antibody, V domains shown)
VH: B1 VH
VL: B1 VL with S92E
Take B5: the “IC 50 (NK-92) in pM” value was found to be 7.69 pM.

B6: Antibody 74 (antibody, V domains shown)
VH: B1 VH with S84I
VL: B1 VL with D91E
For the molecule B6, the “IC 50 (NK-92) in pM” value turned out to be 33.9 pM.

B7: Antibody 68 (antibody, V domains shown)
VH: B1 VH
VL: B4 VL with S29N, S92F
Consider B7, for which the “IC 50 (NK-92) in pM” value came to 5.34 pM.

B8: Antibody 76 (antibody, V domains shown)
VH: B1 VH with S84I
VL: B1 VL with S92E
Turning to B8, the “IC 50 (NK-92) in pM” value was 7.69 pM.

B9: Antibody 77 (antibody, V domains shown)
VH: B1 VH with S84I
VL: B1 VL with S92F
Consider B9, for which the “IC 50 (NK-92) in pM” value was determined as 5.69 pM.

B10: Antibody 73 (antibody, V domains shown)
VH: B1 VH with S84I
VL: B1 VL with N29S
As to B10, the “IC 50 (NK-92) in pM” value is 11.8 pM.

B11: Antibody 69 (antibody, V domains shown)
VH: B1 VH
VL: B1 VL with N29S, D91E
Consider B11, for which the “IC 50 (NK-92) in pM” value worked out at 162 pM.

B12: Antibody 65 (antibody, V domains shown)
VH: B1 VH
VL: B1 VL with D91E
Take B12: the “IC 50 (NK-92) in pM” value came out at 42.5 pM.

B13: Antibody 66 (antibody, V domains shown)
VH: B1 VH
VL: B4 VL with S29N, S92L
With B13, the “IC 50 (NK-92) in pM” value was found to be 6.04 pM.

B14: Antibody 71 (antibody, V domains shown)
VH: B1 VH
VL: B1 VL with N29S, S92E
For B14, the “IC 50 (NK-92) in pM” value turned out to be 26.4 pM.
